Test results taken from patent US20100184658A1 (published 2010).

What was measured:
Experiment in all cases: cell-based or functional assay
CLK3 = CLK3 (UniProt P49761 1-490, limits assumed)
[1] = target: T1, SGK2 Serum/glucocorticoid regulated kinase 2 (UniProt Q9HBY8 1-367, limits assumed)
T1 sequence (looked up): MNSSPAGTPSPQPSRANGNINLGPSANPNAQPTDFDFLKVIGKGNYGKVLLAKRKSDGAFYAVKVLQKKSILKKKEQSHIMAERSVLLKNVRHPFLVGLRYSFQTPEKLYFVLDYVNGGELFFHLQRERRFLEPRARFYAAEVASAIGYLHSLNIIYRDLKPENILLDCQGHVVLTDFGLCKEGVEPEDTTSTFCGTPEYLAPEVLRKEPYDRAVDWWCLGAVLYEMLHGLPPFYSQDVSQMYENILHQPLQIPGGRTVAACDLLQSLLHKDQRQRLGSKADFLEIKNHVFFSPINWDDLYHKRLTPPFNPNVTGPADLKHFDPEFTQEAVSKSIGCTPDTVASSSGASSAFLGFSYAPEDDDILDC

MAP4K4 (HGK) = MAP4K4 (HGK) (UniProt O95819 1-328, limits assumed)
[2] = target: RPS6KA1 (RSK1) Ribosomal protein S6 kinase, 90 kDa, polypeptide 1 (UniProt Q15418 1-735, limits assumed)
[3] = target: T2, SGKL (SGK3) Serum/glucocorticoid regulated kinase family, member 3 (UniProt Q96BR1 1-496, limits assumed)
T2 sequence (looked up): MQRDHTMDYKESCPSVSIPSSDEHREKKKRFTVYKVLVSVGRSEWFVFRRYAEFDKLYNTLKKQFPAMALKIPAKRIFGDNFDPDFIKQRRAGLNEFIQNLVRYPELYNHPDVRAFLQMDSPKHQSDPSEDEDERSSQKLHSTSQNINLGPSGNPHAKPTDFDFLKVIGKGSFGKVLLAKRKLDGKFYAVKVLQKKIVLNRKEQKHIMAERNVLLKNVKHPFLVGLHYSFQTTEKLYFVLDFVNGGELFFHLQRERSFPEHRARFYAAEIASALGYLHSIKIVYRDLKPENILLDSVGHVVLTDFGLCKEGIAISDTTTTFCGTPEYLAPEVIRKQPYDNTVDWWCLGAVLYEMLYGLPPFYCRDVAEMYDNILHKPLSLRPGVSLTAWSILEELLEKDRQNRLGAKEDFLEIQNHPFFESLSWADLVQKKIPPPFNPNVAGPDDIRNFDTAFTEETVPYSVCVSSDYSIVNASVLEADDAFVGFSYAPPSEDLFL

[4] = target: PRKCB1 (PKC beta I) Protein kinase C, beta 1 (UniProt P05771 1-671)
RPS6KA6 (RSK4) = RPS6KA6 (RSK4) (UniProt Q9UK32 1-745, limits assumed)
PRKCQ (PKC theta) = PRKCQ (PKC theta) (UniProt Q04759 1-706, limits assumed)
PASK = PASK (UniProt Q96RG2 879-1323, limits assumed)
MERTK (cMER) = target: T3, MERTK (cMER) (UniProt Q12866 578-872, limits assumed)
T3 sequence (looked up): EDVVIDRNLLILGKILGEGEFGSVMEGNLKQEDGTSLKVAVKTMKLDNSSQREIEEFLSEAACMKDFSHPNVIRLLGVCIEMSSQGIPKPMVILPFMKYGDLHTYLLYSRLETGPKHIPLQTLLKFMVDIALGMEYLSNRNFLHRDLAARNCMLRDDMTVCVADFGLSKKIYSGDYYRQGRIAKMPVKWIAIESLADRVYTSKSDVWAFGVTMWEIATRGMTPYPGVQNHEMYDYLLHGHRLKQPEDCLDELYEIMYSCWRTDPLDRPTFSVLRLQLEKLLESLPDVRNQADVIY

ADRBK2 (GRK3) = target: T4, ADRBK2 (GRK3) (UniProt P35626 1-688, limits assumed)
T4 sequence (looked up): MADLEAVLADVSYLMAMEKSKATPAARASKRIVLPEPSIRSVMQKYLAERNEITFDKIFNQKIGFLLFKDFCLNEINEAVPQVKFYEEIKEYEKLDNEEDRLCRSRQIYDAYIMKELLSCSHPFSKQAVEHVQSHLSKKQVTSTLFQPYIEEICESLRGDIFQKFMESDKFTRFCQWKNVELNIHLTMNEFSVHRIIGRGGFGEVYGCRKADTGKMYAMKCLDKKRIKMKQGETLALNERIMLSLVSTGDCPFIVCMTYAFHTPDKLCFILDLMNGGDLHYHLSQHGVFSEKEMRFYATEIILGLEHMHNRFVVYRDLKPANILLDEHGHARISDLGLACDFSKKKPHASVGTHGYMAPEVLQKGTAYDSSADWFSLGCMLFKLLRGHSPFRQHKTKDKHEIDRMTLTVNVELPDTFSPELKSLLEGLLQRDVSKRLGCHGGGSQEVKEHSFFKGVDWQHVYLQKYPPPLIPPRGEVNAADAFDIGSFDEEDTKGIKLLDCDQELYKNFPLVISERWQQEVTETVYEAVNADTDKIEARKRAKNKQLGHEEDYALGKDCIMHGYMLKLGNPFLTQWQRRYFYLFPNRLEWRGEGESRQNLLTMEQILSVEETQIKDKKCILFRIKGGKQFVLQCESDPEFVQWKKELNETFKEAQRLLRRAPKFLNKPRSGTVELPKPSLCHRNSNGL

CLK2 = CLK2 (UniProt P49760 1-499, limits assumed)
MAPKAPK3 = MAPKAPK3 (UniProt Q16644 1-382, limits assumed)
MAPKAPK3, sequence (Q16644 whole entry): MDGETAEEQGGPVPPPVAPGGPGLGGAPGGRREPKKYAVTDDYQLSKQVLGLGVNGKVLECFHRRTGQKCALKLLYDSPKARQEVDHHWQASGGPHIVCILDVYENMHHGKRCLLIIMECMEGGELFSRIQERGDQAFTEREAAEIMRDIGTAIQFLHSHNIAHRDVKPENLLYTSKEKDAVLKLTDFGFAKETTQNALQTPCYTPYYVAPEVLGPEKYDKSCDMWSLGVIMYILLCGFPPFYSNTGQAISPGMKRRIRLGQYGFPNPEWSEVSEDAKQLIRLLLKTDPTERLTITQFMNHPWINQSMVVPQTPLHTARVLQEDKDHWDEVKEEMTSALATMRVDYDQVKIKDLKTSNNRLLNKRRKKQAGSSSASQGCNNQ

CLK3, sequence (P49761 whole entry): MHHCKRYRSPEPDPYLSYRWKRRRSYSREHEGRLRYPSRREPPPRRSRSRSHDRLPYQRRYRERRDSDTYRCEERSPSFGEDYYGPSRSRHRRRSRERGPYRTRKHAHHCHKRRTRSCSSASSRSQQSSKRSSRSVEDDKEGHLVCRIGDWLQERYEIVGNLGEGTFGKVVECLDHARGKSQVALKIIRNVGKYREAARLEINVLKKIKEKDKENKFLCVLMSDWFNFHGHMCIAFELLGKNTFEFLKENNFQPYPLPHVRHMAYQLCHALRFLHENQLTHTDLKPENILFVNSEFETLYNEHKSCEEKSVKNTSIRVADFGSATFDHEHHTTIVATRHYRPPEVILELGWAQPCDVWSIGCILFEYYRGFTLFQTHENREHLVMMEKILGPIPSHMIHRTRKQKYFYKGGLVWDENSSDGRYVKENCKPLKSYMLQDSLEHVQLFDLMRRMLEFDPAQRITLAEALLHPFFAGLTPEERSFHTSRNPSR
RPS6KA6 (RSK4), sequence (Q9UK32 whole entry): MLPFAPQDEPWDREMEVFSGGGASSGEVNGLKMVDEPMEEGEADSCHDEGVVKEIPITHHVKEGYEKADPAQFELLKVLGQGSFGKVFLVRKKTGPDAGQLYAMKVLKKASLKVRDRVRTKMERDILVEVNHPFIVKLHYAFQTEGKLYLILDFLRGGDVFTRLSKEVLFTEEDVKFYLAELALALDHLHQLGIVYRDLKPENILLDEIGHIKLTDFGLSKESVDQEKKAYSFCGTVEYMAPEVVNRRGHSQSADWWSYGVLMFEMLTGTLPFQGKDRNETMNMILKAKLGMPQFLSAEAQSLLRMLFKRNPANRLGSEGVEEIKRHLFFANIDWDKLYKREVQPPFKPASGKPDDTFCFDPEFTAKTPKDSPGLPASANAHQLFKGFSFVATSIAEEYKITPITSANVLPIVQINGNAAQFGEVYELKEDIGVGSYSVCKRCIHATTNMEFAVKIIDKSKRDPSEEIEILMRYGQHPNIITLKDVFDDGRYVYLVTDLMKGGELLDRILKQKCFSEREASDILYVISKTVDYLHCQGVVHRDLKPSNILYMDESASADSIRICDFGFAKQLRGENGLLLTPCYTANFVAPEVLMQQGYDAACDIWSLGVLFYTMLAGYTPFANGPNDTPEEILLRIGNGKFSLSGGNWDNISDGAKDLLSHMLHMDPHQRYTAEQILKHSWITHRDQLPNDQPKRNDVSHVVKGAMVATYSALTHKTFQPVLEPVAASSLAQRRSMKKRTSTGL
PRKCB1 (PKC beta I) Protein kinase C, beta 1, sequence (P05771 whole entry): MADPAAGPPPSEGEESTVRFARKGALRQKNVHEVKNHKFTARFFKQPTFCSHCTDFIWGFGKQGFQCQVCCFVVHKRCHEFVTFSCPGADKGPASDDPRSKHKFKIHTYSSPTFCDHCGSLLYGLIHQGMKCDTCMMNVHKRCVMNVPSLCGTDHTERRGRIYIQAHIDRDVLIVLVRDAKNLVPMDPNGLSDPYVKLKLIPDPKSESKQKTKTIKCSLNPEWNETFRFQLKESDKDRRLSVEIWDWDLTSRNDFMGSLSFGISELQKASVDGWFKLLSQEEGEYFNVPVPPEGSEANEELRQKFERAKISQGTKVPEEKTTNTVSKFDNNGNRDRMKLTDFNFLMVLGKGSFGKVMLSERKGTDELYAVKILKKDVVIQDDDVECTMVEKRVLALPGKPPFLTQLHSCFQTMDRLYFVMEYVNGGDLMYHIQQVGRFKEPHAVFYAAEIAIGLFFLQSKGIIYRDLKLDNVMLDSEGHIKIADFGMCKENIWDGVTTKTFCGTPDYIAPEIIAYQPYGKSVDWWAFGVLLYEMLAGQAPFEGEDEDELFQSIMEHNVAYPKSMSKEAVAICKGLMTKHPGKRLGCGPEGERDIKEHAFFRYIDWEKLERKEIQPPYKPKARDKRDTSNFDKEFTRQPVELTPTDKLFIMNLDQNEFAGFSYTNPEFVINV
PRKCQ (PKC theta), sequence (Q04759 whole entry): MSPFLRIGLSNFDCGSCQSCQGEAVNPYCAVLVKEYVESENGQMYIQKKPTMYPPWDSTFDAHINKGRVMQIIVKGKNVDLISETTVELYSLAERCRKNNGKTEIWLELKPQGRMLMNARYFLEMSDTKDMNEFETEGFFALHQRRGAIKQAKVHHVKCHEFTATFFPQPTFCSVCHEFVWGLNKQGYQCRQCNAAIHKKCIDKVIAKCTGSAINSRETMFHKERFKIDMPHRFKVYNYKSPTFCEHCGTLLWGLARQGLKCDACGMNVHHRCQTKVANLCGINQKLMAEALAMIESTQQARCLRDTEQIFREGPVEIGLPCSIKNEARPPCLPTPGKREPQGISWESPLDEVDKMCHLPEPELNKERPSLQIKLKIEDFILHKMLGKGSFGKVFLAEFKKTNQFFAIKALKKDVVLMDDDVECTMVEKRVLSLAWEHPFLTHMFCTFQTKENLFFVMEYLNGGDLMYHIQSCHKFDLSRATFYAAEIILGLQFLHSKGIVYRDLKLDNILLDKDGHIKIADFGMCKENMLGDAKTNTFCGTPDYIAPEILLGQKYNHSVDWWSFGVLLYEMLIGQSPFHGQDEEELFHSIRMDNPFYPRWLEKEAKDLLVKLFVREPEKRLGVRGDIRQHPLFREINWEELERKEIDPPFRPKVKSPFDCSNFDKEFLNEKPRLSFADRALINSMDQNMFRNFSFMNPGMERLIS
CLK2, sequence (P49760 whole entry): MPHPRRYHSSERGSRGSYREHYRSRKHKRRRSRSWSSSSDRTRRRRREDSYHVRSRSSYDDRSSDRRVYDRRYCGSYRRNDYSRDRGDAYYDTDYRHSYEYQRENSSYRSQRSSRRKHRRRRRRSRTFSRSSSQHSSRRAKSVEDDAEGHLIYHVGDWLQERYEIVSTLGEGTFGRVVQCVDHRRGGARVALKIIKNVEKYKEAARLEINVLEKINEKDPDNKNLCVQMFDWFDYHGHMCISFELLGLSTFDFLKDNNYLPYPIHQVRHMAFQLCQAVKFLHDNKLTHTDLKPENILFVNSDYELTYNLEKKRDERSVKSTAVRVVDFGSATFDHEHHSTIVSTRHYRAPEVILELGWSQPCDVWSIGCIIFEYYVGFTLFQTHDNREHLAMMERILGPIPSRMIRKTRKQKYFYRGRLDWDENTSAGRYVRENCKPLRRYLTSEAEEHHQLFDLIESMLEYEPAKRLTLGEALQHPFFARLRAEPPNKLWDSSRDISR
RPS6KA1 (RSK1) Ribosomal protein S6 kinase, 90 kDa, polypeptide 1, sequence (Q15418 whole entry): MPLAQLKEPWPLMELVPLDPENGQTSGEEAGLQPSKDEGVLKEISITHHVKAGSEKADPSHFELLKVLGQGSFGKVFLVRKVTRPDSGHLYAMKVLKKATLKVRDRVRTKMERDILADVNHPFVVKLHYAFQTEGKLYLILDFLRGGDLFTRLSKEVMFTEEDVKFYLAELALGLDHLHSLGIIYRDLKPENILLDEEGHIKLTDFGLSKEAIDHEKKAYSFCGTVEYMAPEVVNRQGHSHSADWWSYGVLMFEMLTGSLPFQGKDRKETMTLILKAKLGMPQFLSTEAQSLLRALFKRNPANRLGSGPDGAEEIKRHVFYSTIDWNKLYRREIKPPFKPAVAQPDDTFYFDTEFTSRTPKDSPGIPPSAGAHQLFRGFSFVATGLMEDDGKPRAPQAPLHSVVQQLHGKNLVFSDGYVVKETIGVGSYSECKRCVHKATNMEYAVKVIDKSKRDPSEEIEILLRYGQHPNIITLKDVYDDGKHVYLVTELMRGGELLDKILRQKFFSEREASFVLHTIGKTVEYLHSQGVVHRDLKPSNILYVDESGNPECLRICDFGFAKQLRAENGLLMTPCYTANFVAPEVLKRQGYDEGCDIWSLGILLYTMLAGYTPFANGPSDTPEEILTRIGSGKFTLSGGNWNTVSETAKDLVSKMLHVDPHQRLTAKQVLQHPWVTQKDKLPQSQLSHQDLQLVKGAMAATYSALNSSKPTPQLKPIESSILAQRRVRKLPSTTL
PASK, sequence (Q96RG2 879-1323 limits assumed): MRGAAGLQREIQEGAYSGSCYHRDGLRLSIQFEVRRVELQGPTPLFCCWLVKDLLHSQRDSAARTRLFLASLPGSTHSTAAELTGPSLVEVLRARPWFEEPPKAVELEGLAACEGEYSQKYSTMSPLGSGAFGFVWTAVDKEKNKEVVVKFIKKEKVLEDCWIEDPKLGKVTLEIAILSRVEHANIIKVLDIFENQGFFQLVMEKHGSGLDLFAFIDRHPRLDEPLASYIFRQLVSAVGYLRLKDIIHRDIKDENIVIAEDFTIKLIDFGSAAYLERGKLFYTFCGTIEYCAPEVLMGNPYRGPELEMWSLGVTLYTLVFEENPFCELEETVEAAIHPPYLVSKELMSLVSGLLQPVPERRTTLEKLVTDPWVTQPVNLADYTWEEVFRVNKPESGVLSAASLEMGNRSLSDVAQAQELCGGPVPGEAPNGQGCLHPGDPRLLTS
MAP4K4 (HGK), sequence (O95819 1-328 limits assumed): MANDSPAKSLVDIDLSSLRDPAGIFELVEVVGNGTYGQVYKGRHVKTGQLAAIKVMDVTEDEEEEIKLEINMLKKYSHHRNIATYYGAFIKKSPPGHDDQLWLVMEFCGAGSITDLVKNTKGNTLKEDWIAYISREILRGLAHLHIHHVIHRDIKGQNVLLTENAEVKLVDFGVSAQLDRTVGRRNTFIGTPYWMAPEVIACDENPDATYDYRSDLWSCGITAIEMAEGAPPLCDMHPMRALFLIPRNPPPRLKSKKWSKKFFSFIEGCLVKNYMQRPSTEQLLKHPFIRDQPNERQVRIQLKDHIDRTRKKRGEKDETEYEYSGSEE

B1: D3 peptide (peptide)
peptide: SGRPPMIVWFNRPFLIAVSHTHGQTILFMAKVINPVGA
- % Inhibition mean (CLK3): 46%
- % Inhibition mean [1]: 102%
- % Inhibition mean (MAP4K4 (HGK)): 100%
- % Inhibition mean [2]: 98.3%
- % Inhibition mean [3]: 97%
- % Inhibition mean [4]: 88%
- % Inhibition mean (RPS6KA6 (RSK4)): 87.6%
- % Inhibition mean (PRKCQ (PKC theta)): 86.3%
- % Inhibition mean (PASK): 80.8%
- % Inhibition mean (MERTK (cMER)): 79.5%
- % Inhibition mean (ADRBK2 (GRK3)): 66.7%
- % Inhibition mean (CLK2): 65.9%
- % Inhibition mean (MAPKAPK3): 64.1%
